These results are taken from the supplement of paper PMC9112550, “Optimization of the antimicrobial peptide Bac7 by deep mutational scanning” (BMC Biology, 2022).

This series relates to Escherichia coli TOP10. The series can be described thus: shrunken log2 fold change of peptide-encoding DNA abundance (4.5 h post-induction vs induction); higher = less antimicrobial activity (less host growth inhibition). The following applies: time post-induction: 4.5 h; library: site-saturation at positions 5, 18, 19, 20.
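Also: peptides expressed intracellularly from a pBAD plasmid library in pooled LB shake-flask culture, induced with 0.3% L-arabinose, DNA abundance read by NGS, three biological replicates, DESeq2 with apeglm shrinkage.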

RRIRCRPPRLPRPRPRPNTTPRP: the “shrunken log2 fold change” value was -0.291.

With RRIRKRPPRLPRPRPRPITVPRP, the “shrunken log2 fold change” value worked out at 0.0944. The result for RRIRDRPPRLPRPRPRPLNFPRP reads -0.139; that for RRIRWRPPRLPRPRPRPEEQPRP, 0.149; that for RRIRPRPPRLPRPRPRPNIEPRP, -0.294. The result for RRIRHRPPRLPRPRPRPNQPPRP reads 0.00401; that for RRIRGRPPRLPRPRPRPSLIPRP, 0.211.

Regarding RRIRARPPRLPRPRPRPLFMPRP, the “shrunken log2 fold change” value is -0.166. The result for RRIRVRPPRLPRPRPRPKCWPRP reads 0.313.

Regarding RRIRWRPPRLPRPRPRPAPMPRP, the “shrunken log2 fold change” value worked out at 0.615. Take RRIRKRPPRLPRPRPRPNNPPRP: the “shrunken log2 fold change” value is -0.00604. The result for RRIRNRPPRLPRPRPRPRFDPRP reads 0.0608; that for RRIRPRPPRLPRPRPRPIEFPRP, -0.114. The result for RRIRVRPPRLPRPRPRPSGFPRP reads -0.131. As to RRIRIRPPRLPRPRPRPFEGPRP, the “shrunken log2 fold change” value is -0.221. On to RRIRKRPPRLPRPRPRPWKCPRP, for which the “shrunken log2 fold change” value was -0.0018. RRIRTRPPRLPRPRPRPDCFPRP: the “shrunken log2 fold change” value was -0.138.

As for RRIRGRPPRLPRPRPRPEILPRP, the “shrunken log2 fold change” value stood at 1.22. To RRIRRRPPRLPRPRPRPCLVPRP belongs -0.096; to RRIRFRPPRLPRPRPRPRCIPRP, -0.606; to RRIRQRPPRLPRPRPRPDMDPRP, -0.0896.

As for RRIRRRPPRLPRPRPRPYDDPRP, the “shrunken log2 fold change” value is -0.577.

For RRIRMRPPRLPRPRPRPGVTPRP, the “shrunken log2 fold change” value is 0.285. As for RRIRLRPPRLPRPRPRPAAMPRP, the “shrunken log2 fold change” value is 0.158. To RRIRCRPPRLPRPRPRPSNVPRP belongs -0.608. Regarding RRIRCRPPRLPRPRPRPELNPRP, the “shrunken log2 fold change” value was -0.137. The result for RRIRPRPPRLPRPRPRPASPPRP reads 0.287; that for RRIRNRPPRLPRPRPRPVYFPRP, -0.301.

As for RRIRSRPPRLPRPRPRPYGEPRP, the “shrunken log2 fold change” value is -0.256. To RRIRRRPPRLPRPRPRPRQYPRP belongs -0.191; to RRIRFRPPRLPRPRPRPCVQPRP, -0.182. The result for RRIRWRPPRLPRPRPRPFHIPRP reads -0.655; that for RRIRLRPPRLPRPRPRPSRDPRP, 0.152.

With RRIRTRPPRLPRPRPRPWIRPRP, the “shrunken log2 fold change” value was -0.0303.

Consider RRIRERPPRLPRPRPRPYFGPRP, for which the “shrunken log2 fold change” value was -0.673. The result for RRIRPRPPRLPRPRPRPYCIPRP reads -0.654; that for RRIRTRPPRLPRPRPRPDNTPRP, -0.191; that for RRIRDRPPRLPRPRPRPKMDPRP, 0.0675. The result for RRIRMRPPRLPRPRPRPPKMPRP reads 0.477; that for RRIRMRPPRLPRPRPRPMCWPRP, 2.09.

For RRIRQRPPRLPRPRPRPCYSPRP, the “shrunken log2 fold change” value is -0.0444. To RRIRCRPPRLPRPRPRPQLCPRP belongs 0.192. The result for RRIRMRPPRLPRPRPRPLHVPRP reads -0.21; that for RRIRTRPPRLPRPRPRPWQSPRP, 0.0475. For RRIRVRPPRLPRPRPRPQAIPRP, the “shrunken log2 fold change” value is -0.0973. As for RRIRNRPPRLPRPRPRPVFEPRP, the “shrunken log2 fold change” value worked out at 0.07.

As for RRIRIRPPRLPRPRPRPEYHPRP, the “shrunken log2 fold change” value was -0.152. The result for RRIRQRPPRLPRPRPRPVCPPRP reads -0.0461. The result for RRIRHRPPRLPRPRPRPPFQPRP reads 0.0923; that for RRIRGRPPRLPRPRPRPCLCPRP, 0.655; that for RRIRVRPPRLPRPRPRPEIDPRP, 0.135. The result for RRIRTRPPRLPRPRPRPVKIPRP reads -1.21; that for RRIRTRPPRLPRPRPRPSSDPRP, 1.82; that for RRIRRRPPRLPRPRPRPFHYPRP, -0.259. On to RRIRWRPPRLPRPRPRPVPAPRP, for which the “shrunken log2 fold change” value is 0.532. Turning to RRIRGRPPRLPRPRPRPGVTPRP, the “shrunken log2 fold change” value is 0.721. Regarding RRIRERPPRLPRPRPRPKSDPRP, the “shrunken log2 fold change” value was -0.0784. The result for RRIRGRPPRLPRPRPRPYVKPRP reads -0.417; that for RRIRSRPPRLPRPRPRPSWFPRP, -0.268; that for RRIRPRPPRLPRPRPRPHDKPRP, -0.271.

Take RRIRQRPPRLPRPRPRPWKEPRP: the “shrunken log2 fold change” value is -0.103. The result for RRIRMRPPRLPRPRPRPCGSPRP reads -0.0626; that for RRIRSRPPRLPRPRPRPKAHPRP, 0.277; that for RRIRWRPPRLPRPRPRPLKWPRP, 0.488.

As to RRIRSRPPRLPRPRPRPWPYPRP, the “shrunken log2 fold change” value was -0.03. Consider RRIRHRPPRLPRPRPRPTLYPRP, for which the “shrunken log2 fold change” value is -0.362. Regarding RRIRCRPPRLPRPRPRPTTNPRP, the “shrunken log2 fold change” value was found to be 0.0115. The result for RRIRNRPPRLPRPRPRPFVSPRP reads -0.394; that for RRIRFRPPRLPRPRPRPKIPPRP, -0.428.

As to RRIRSRPPRLPRPRPRPFSQPRP, the “shrunken log2 fold change” value was -1.07. Take RRIRKRPPRLPRPRPRPHTLPRP: the “shrunken log2 fold change” value is -0.168. To RRIRPRPPRLPRPRPRPPVIPRP belongs 0.332; to RRIRGRPPRLPRPRPRPPHAPRP, 1.37.

For the sequence RRIRMRPPRLPRPRPRPGCNPRP, the “shrunken log2 fold change” value amounted to 0.00293. To RRIRQRPPRLPRPRPRPMPCPRP belongs -0.00136; to RRIRNRPPRLPRPRPRPWRHPRP, -0.109. The result for RRIRKRPPRLPRPRPRPEYLPRP reads -0.0659; that for RRIRRRPPRLPRPRPRPEFRPRP, 0.179; that for RRIRWRPPRLPRPRPRPNVHPRP, 0.0272. The result for RRIRTRPPRLPRPRPRPKLWPRP reads 0.401. As for RRIRMRPPRLPRPRPRPEQWPRP, the “shrunken log2 fold change” value was 0.184. The result for RRIRWRPPRLPRPRPRPFSLPRP reads 0.141. The result for RRIRLRPPRLPRPRPRPWRIPRP reads 0.0246; that for RRIRDRPPRLPRPRPRPHCNPRP, -0.226; that for RRIRVRPPRLPRPRPRPPAFPRP, 0.068. To RRIRARPPRLPRPRPRPPQWPRP belongs 0.814; to RRIRSRPPRLPRPRPRPWKSPRP, -0.0239; to RRIRDRPPRLPRPRPRPIYPPRP, -1.42.

Turning to RRIRLRPPRLPRPRPRPVHAPRP, the “shrunken log2 fold change” value was 0.178.

Consider RRIRPRPPRLPRPRPRPYFGPRP, for which the “shrunken log2 fold change” value is -0.522. The result for RRIRLRPPRLPRPRPRPQVYPRP reads -0.11; that for RRIRARPPRLPRPRPRPFQWPRP, -0.0629. With RRIRGRPPRLPRPRPRPYFDPRP, the “shrunken log2 fold change” value was -0.00956.

On to RRIRTRPPRLPRPRPRPTIGPRP, for which the “shrunken log2 fold change” value was -0.000966. The result for RRIRFRPPRLPRPRPRPPYRPRP reads 0.0239. To RRIRSRPPRLPRPRPRPHYAPRP belongs -0.247. The result for RRIRTRPPRLPRPRPRPMYSPRP reads -0.00295; that for RRIRSRPPRLPRPRPRPEFDPRP, 0.202. As to RRIRKRPPRLPRPRPRPNCLPRP, the “shrunken log2 fold change” value was -0.0339. To RRIRVRPPRLPRPRPRPTYHPRP belongs 1.5; to RRIRTRPPRLPRPRPRPIHWPRP, 0.0444. To RRIRTRPPRLPRPRPRPTEYPRP belongs -0.245. The result for RRIRKRPPRLPRPRPRPMLSPRP reads -0.227; that for RRIRHRPPRLPRPRPRPVFAPRP, 0.12; that for RRIRQRPPRLPRPRPRPYVNPRP, -0.00544. Turning to RRIRVRPPRLPRPRPRPARAPRP, the “shrunken log2 fold change” value worked out at 0.566. The result for RRIRPRPPRLPRPRPRPFHLPRP reads -0.54; that for RRIRTRPPRLPRPRPRPTIRPRP, -0.0471.

As to RRIRWRPPRLPRPRPRPYKQPRP, the “shrunken log2 fold change” value is -0.0587. The result for RRIRHRPPRLPRPRPRPGPHPRP reads -0.14.

On to RRIRPRPPRLPRPRPRPFKRPRP, for which the “shrunken log2 fold change” value was -0.00475. To RRIRCRPPRLPRPRPRPDCHPRP belongs -0.0697; to RRIRCRPPRLPRPRPRPYRCPRP, -0.282. The result for RRIRRRPPRLPRPRPRPTCPPRP reads 0.415. To RRIRCRPPRLPRPRPRPDSQPRP belongs -0.203; to RRIRARPPRLPRPRPRPGHHPRP, 0.127; to RRIRSRPPRLPRPRPRPRNHPRP, -0.0799. In the case of RRIRFRPPRLPRPRPRPRMNPRP, the “shrunken log2 fold change” value was -0.173. The result for RRIRYRPPRLPRPRPRPQQNPRP reads -0.421. For the sequence RRIRDRPPRLPRPRPRPGLGPRP, the “shrunken log2 fold change” value stood at 0.208. The result for RRIRLRPPRLPRPRPRPYQHPRP reads -0.661.

On to RRIRKRPPRLPRPRPRPSYMPRP, for which the “shrunken log2 fold change” value was -0.0995. The result for RRIRWRPPRLPRPRPRPIYVPRP reads -0.0477; that for RRIRHRPPRLPRPRPRPFVYPRP, -0.186.

RRIRRRPPRLPRPRPRPMLSPRP: the “shrunken log2 fold change” value was determined as 0.00534.
